{"source": "patent US20110311517A1", "about": "“Antibodies and methods for treating estrogen receptor-associated diseases” (SHENOGEN PHARMA GROUP, LTD., priority 2009, published 2011)", "key": {"ERα36": {"target": "T1, ERα36 (Homo sapiens, UniProt P03372)", "T1 construct": "made in house; host or cells: chemical synthesis (no expression host)", "T1 sequence (P03372 284-310 isoform P03372-4 limits assumed)": "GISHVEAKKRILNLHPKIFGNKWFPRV", "experiment": "ELISA of re-natured ScFv binding to ERα36", "method": "Streptavidin-coated 96-well plates were washed twice with PBS. Biotinylated ERα36 (final concentration of 20 μg/ml) was added into each testing well. The plates were incubated for 2 h at room temperature and washed three times with PBST. Re-natured ScFv samples (100 μl, S14A1r1, S24A2r2, S33A2r1, S41A3r3, S53A1r1, S66A1r1 and S72A2r1) were added into the testing wells respectively. Each ScFv was diluted five times in five gradients, and two parallel wells were loaded with each ScFv at each gradient. The plates were incubated at 37° C. for 1 h. The plates were washed three times with PBST, followed by addition of 100 μl anti-His-6 mouse monoclonal antibody (1:2000 dilution) per well and 1 h incubation at 37° C. The plates were washed three times with PBST, followed by addition of 100 μl goat anti-mouse-HRP (1:2500 dilution) per well and 1 h incubation at 37° C. The plates were washed six times with PBST, followed by addition of 100 μl OPD to develop under the protection from light. The reactions were terminated by adding 50 μl 2M H2SO4 to each well, and data were collected by microplate reader at 490 nm.\nOne positive control and three negative controls were performed in parallel. The positive control used rabbit anti-ER multi-clonal antibody serum in replacement of the ScFv re-natured sample and goat-anti-rabbit-HRP in replacement of goat-anti-mouse HRP."}, "[1]": {"system": "Human breast tumor BCAP-37", "experiment": "Tumor growth inhibition in BCAP-37 tumor-bearing nude mice", "assay_type": "in vivo, BALB/c-nu nude mice", "text": "49 female BALB/c-nu nude mice (provided by department of laboratory animal science, Peking University Health Science Center) were used in the studies.\n(§1) The tested animals were grouped into 7 groups with 7 nude mice in each group. The seven groups are the negative control group treated with human IgG antibody (purchased from Beijing Biosynthesis Biotechnology Co. Ltd.), the positive control group treated with herceptin (provided by Beijing Shenogen pharma group), the multi-clonal antibody test group treated with rabbit anti-ERα36 multi-clonal antibody (provided by Wang, Zhao-Yi group, Creighton University), and the monoclonal antibody test groups treated with human anti-ERα36 monoclonal ScFv1, ScFv3, ScFv4 and ScFv7 respectively.\n(§2) The test groups were administered with the same dose of rabbit anti-ERα36 multi-clonal antibody, human anti-ERα36 monoclonal ScFv1, ScFv3, ScFv4 and ScFv7 respectively (5 mg/kg, 100 μg/dose). The positive control group was administered with 5 mg/kg herceptin (100 μg/dose,), and the negative control group was administered with 5 mg/kg IgG antibody (100 μg/dose).\n(§3) Human breast tumor BCAP-37 (estrogen receptor positive, provided by department of pharmacology, Institute of Materia Medica, Chinese Academy of Medical Sciences) was implanted subcutaneously into the armpit of the right forelimb of each tested nude mouse. Diethylstilbestrol was administered by gavage with the dose of 7 μg/day for 9 consecutive days after the implantation. On day 10, the mice were grouped into 7 groups and administered with the corresponding drug via intravenous injection, at a dosing interval of 3-4 days, for 6 consecutive doses. Every 3-4 days, the tumor-bearing mice were weighed and their tumor sizes were measured. Parameters were calculated using the following equations:\nVolume of Tumor in animals of each group (VT): Vt=½×a×b^2, (Equation 1),\nwherein a and b represent the length and width of the tumor, respectively;\nwherein V0 is the volume of tumor before drug administration at the time of grouping, Vt is the volume of tumor at each measurement; the calculation method of V0 is the same as that of Vt;\nwherein TRTV is the arithmetic mean of RTV of the test groups, and CRTV is the arithmetic mean of RTV of the negative control group.\nThe tumor bearing mice in each group were terminated after 21 days of observations and drug administrations. The tumors were then excised from the animals, photographed and weighed on 1/10000 analytical balance. The average tumor weights and tumor growth inhibition rates were calculated:\nAll experimental data were shown in mean±standard deviation. Groups were compared using statistical t test."}, "[2]": {"experiment": "Body weight and mortality of tumor-bearing nude mice during drug administration", "assay_type": "in vivo, BALB/c-nu nude mice", "conditions": "mean ± SD", "text": "as §1, §2\nas §3, with “equations: […]” for “equations:”"}, "[3]": {"conditions": "ScFv concentration 235.00 μg/ml"}, "[4]": {"conditions": "ScFv concentration 170.00 μg/ml"}, "[5]": {"conditions": "BCAP-37 nude mice, 5 mg/kg i.v. every 3-4 days, 6 doses, mean ± SD"}, "[6]": {"conditions": "BCAP-37 nude mice, 5 mg/kg i.v. every 3-4 days, Vt relative to V0, mean ± SD"}, "[7]": {"conditions": "5 mg/kg i.v. every 3-4 days, 6 doses"}}, "note": "Marks after values point to notes of the source that are not given here."}
{"molecule": "ScFv6: fully human anti-ERα36 single chain antibody, SEQ ID NO: 13 (protein, scFv6) scFv: EIVMTQSPGTLSLSPGERATLSCRASQSVDSNFLAWYQQRPGQAPRLLIYGVSSSATGIPDRFSGSGSGTDFTLSIDRLEPEDFAVYYCQQYGSSPTFGGGTKLEIKRSGGSTITSYNVYYTKLSSSGTQVQLQESGGGLVQPGRSLRLSCAASGFTFDDYAMHWVRQAPGKGLEWVSGISWNSGSIGYADSVKGRFTISRDNAKNSLYLQMNSLRAEDTAVYYCARSGDYGAFDIWGQGTMVTVSSAS", "values": [{"measurement": "OD490 Well1", "setting": "ERα36; ScFv concentration 0.38 μg/ml", "value": 0.127}, {"measurement": "OD490 Well2", "setting": "ERα36; ScFv concentration 0.38 μg/ml", "value": 0.129}, {"measurement": "OD490 Well1", "setting": "ERα36; ScFv concentration 1.90 μg/ml", "value": 0.161}, {"measurement": "OD490 Well2", "setting": "ERα36; ScFv concentration 1.90 μg/ml", "value": 0.162}, {"measurement": "OD490 Well1", "setting": "ERα36; ScFv concentration 9.40 μg/ml", "value": 0.210}, {"measurement": "OD490 Well2", "setting": "ERα36; ScFv concentration 9.40 μg/ml", "value": 0.209}, {"measurement": "OD490 Well1", "setting": "ERα36; ScFv concentration 47.00 μg/ml", "value": 0.327}, {"measurement": "OD490 Well2", "setting": "ERα36; ScFv concentration 47.00 μg/ml", "value": 0.326}, {"measurement": "OD490 Well1", "setting": "ERα36; [3]", "value": 0.677}, {"measurement": "OD490 Well2", "setting": "ERα36; [3]", "value": 0.664}]}
{"molecule": "ScFv2: fully human anti-ERα36 single chain antibody, SEQ ID NO: 5 (protein, scFv2) scFv: QSALTQPASVSGSPGQSITISCTGTSSDVGGYNYVSWYQQHPGKAPKLMIYDVSKRPSGVSNRFSGSKSGNTASLTISGLQAEDEADYYCSSYTSSSTLVFGGGTKLTVLGSGGSTITSYNVYYTKLSSSGTQVQLLESGAEVKKPGASVKVSCKASGYTFTAYYMHWVRQAPGQGLEWMAMIDPSGSITSYAQKFQGRVTMSRDTSTSTLYMELSSLRSDDTAVYYCARDLKEGFSVPGAFDIWGQGTMVTVSSAS", "values": [{"measurement": "OD490 Well1", "setting": "ERα36; ScFv concentration 1.40 μg/ml", "value": 0.095}, {"measurement": "OD490 Well2", "setting": "ERα36; ScFv concentration 1.40 μg/ml", "value": 0.096}, {"measurement": "OD490 Well1", "setting": "ERα36; ScFv concentration 7.00 μg/ml", "value": 0.138}, {"measurement": "OD490 Well2", "setting": "ERα36; ScFv concentration 7.00 μg/ml", "value": 0.121}, {"measurement": "OD490 Well1", "setting": "ERα36; ScFv concentration 35.00 μg/ml", "value": 0.343}, {"measurement": "OD490 Well2", "setting": "ERα36; ScFv concentration 35.00 μg/ml", "value": 0.359}]}
{"molecule": "ScFv3: fully human anti-ERα36 single chain antibody, SEQ ID NO: 7 (protein, scFv3) scFv: QSVLTQPASVSGSPGQSITISCTGTSSDVGGYNYVSWYQQHPGKAPKLMIYDVSKRPSGVSNRFSGSKSGNTASLTISGLQAEDEADYYCSSYTSSSTLVFGGGTKLTVLGSGGSTITSYNVYYTKLSSSGTEVQLVQSGGGVAQPGRSLRLSCAASGITFNSYGMHWVRQAPGKGLEWVAVMPYDGSNEYYADSVKGRFTISRDNSKNTLYLQMNSLRAEDTAVYYCAKGSGMVQLWADAFDVWGQGTMVTVSSAS", "values": [{"measurement": "OD490 Well1", "setting": "ERα36; ScFv concentration 1.44 μg/ml", "value": 0.242}, {"measurement": "OD490 Well2", "setting": "ERα36; ScFv concentration 1.44 μg/ml", "value": 0.037}, {"measurement": "OD490 Well1", "setting": "ERα36; ScFv concentration 7.20 μg/ml", "value": 0.290}, {"measurement": "OD490 Well2", "setting": "ERα36; ScFv concentration 7.20 μg/ml", "value": 0.229}, {"measurement": "OD490 Well1", "setting": "ERα36; ScFv concentration 36.00 μg/ml", "value": 0.448}, {"measurement": "OD490 Well2", "setting": "ERα36; ScFv concentration 36.00 μg/ml", "value": 0.344}, {"measurement": "OD490 Well1", "setting": "ERα36; [4]", "value": 1.459}, {"measurement": "OD490 Well2", "setting": "ERα36; [4]", "value": 1.349}, {"measurement": "Tumor volumes, Day 4 after drug administration", "setting": "[1]; [5]", "value": "171.91 ± 73.68^b mm^3"}, {"measurement": "Tumor volumes, Day 7 after drug administration", "setting": "[1]; [5]", "value": "302.93 ± 100.01^b mm^3"}, {"measurement": "Tumor volumes, Day 11 after drug administration", "setting": "[1]; [5]", "value": "1442.70 ± 406.32^b mm^3"}, {"measurement": "Tumor volumes, Day 14 after drug administration", "setting": "[1]; [5]", "value": "1993.02 ± 405.84^b mm^3"}, {"measurement": "Tumor volumes, Day 18 after drug administration", "setting": "[1]; [5]", "value": "2859.65 ± 427.16^b mm^3"}, {"measurement": "Tumor volumes, Day 21 after drug administration", "setting": "[1]; [5]", "value": "3324.97 ± 460.89^b mm^3"}, {"measurement": "relative tumor volume (RTV), Day 4", "setting": "[1]; [6]", "value": "3.61 ± 2.03^b"}, {"measurement": "relative tumor volume (RTV), Day 7", "setting": "[1]; [6]", "value": "6.31 ± 2.88^b"}, {"measurement": "relative tumor volume (RTV), Day 11", "setting": "[1]; [6]", "value": "30.44 ± 14.49^b"}, {"measurement": "relative tumor volume (RTV), Day 14", "setting": "[1]; [6]", "value": "41.87 ± 16.82^b"}, {"measurement": "relative tumor volume (RTV), Day 18", "setting": "[1]; [6]", "value": "59.61 ± 20.46^b"}, {"measurement": "relative tumor volume (RTV), Day 21", "setting": "[1]; [6]", "value": "69.18 ± 22.85^b"}, {"measurement": "inhibition of tumor growth in tumor-bearing mice (in words)", "setting": "[1]; BCAP-37 nude mice, 5 mg/kg i.v., 6 doses", "value": "strongest inhibitory activities"}, {"measurement": "Tumor volumes, Before drug administration", "setting": "[1]; baseline, BCAP-37 nude mice, 5 mg/kg i.v. every 3-4 days, 6 doses, mean ± SD", "value": "50.51 ± 10.12", "unit": "mm^3"}, {"measurement": "tumor sizes at pathological examination (in words)", "setting": "[1]; excised tumors after 21 days", "value": "the smallest among the mono-clonal antibody groups"}, {"measurement": "Tumor weight", "setting": "[1]; excised tumors after 21 days, BCAP-37 nude mice, 5 mg/kg i.v., 6 doses, mean ± SD", "value": "2.738 ± 0.344", "unit": "g"}, {"measurement": "Tumor growth inhibition rate (%)", "setting": "[1]; from average tumor weights after 21 days vs negative control, 5 mg/kg i.v., 6 doses", "value": 59.76, "unit": "%"}, {"measurement": "Body weights of tumor-bearing nude mice, Day 4 after drug administration", "setting": "[2]; [7]", "value": "20.28 ± 0.54"}, {"measurement": "Body weights of tumor-bearing nude mice, Day 7 after drug administration", "setting": "[2]; [7]", "value": "20.75 ± 0.31"}, {"measurement": "Body weights of tumor-bearing nude mice, Day 11 after drug administration", "setting": "[2]; [7]", "value": "21.24 ± 0.55"}, {"measurement": "Body weights of tumor-bearing nude mice, Day 14 after drug administration", "setting": "[2]; [7]", "value": "22.04 ± 0.59"}, {"measurement": "Body weights of tumor-bearing nude mice, Day 18 after drug administration", "setting": "[2]; [7]", "value": "23.38 ± 0.46"}, {"measurement": "Body weights of tumor-bearing nude mice, Day 21 after drug administration", "setting": "[2]; [7]", "value": "23.62 ± 0.36"}, {"measurement": "body weight when grouped", "setting": "[2]; baseline at the time of grouping", "value": "19.94 ± 0.81"}, {"measurement": "Body weights of tumor-bearing nude mice, Before drug administration", "setting": "[2]; baseline, 5 mg/kg i.v. every 3-4 days, 6 doses", "value": "19.94 ± 0.81"}]}
